Results: patent US20220251173A1

Tests used:
[1] = molecular target: hepatitis B virus surface antigen (HBsAg) (hepatitis B virus); assay: ELISA on commercial HBsAg plate, purified antibody, incubation and washes at pH 7.4, GAH-HRP, OD450/630
[2] = molecular target: hepatitis B virus surface antigen (HBsAg) (hepatitis B virus); assay: ELISA on commercial HBsAg plate, wash/incubation at pH 6.0, quantified transfection supernatant
[3] = molecular target: hepatitis B virus surface antigen (HBsAg) (hepatitis B virus); assay: ELISA on commercial HBsAg plate, pH 7.4, quantified transfection supernatant
[4] = molecular target: hepatitis B virus surface antigen (HBsAg) (hepatitis B virus); assay: ELISA on commercial HBsAg plate, ratio of EC50 at pH 6.0 to pH 7.4

Row | Binder | EC50 (read off the curve) [1] [mg/L] | EC50 [2] [mg/L] | EC50 [3] [mg/L] | EC50(pH 6.0)/EC50(pH 7.4) [4]
1 | D3 DY (antibody, human IgG1, kappa, V domains shown) VH: EVQLQESGPGLVKPSQTLSLTCAVSGSSITHGYHYNWIRQFPGNKLEWIGYIHYDGSVLYNPSLENRVTITRDTSKNQFFLKLSSVTAEDTAKYYCASGFDHWGQGTTLTVSS VL: DVVMTQSPLSLPVTLGEPASISCRSSQSLVHSYGDNYLHWYLQKPGQSPKLLIYKVSNRFSGVPDRFSGSGSGTDFTLKISRVETEDLGVYYCSQNTHVPYTFGGGTKLEIKR | 0.05 |  |  | 
2 | D4 DY (antibody, human IgG1, kappa, V domains shown) VH: EVQLQESGPGLVKPSQTLSLTCAVSGSSITHGYHWNWIRQFPGNKLEWIGYIHYDGSVLYNPSLENRVTITRDTSKNQFFLKLSSVTAEDTAKYYCASGFDHWGQGTTLTVSS VL: DVVMTQSPLSLPVTLGEPASISCRSSQSLVHSYGDNYLHWYLQKPGQSPKLLIYKVSNRFSGVPDRFSGSGSGTDFTLKISRVETEDLGVYYCSQNTHLPYTFGGGTKLEIKR | 0.06 |  |  | 
3 | D5 DY (antibody, human IgG1, kappa, V domains shown) VH: EVQLQESGPGLVKPSQTLSLTCAVSGSSITHGYHWNWIRQFPGNKLEWIGYIHYDGSVLYNPSLENRVTITRDTSKNQFFLKLSSVTAEDTAKYYCASGFDHWGQGTTLTVSS VL: DVVMTQSPLSLPVTLGEPASISCRSSQSLVHSYGDNYLHWYLQKPGQSPKLLIYKVSNRFSGVPDRFSGSGSGTDFTLKISRVETEDLGVYYCSQNTHVPYTFGGGTKLEIKR | 0.04 |  |  | 
4 | C32 (antibody, human IgG1, kappa, V domains shown) VH: EVQLQESGPGLVKPSQTLSLTCAVSGSSITYRYHWNWIRQFPGNKLEWIGYINYDGSVHYNPSLENRVTITRDTSKNQFFLKLSSVTAEDTAKYYCASGFDHWGQGTTLTVSS VL: DVVMTQSPLSLPVTLGEPASISCRSSQSLVHSYGDTYLHWYLQKPGQSPKLLIYKVSNRFSGVPDRFSGSGSGTDFTLKISRVETEDLGVYYCSQNTHLPYTFGGGTKLEIKR |  | 2.25 | 1.33 | 1.69
